Source: patent US20240067747A1 (SHANGHAI HUAOTA BIOPHARMACEUTICAL, published 2024)
Substitutions are numbered along the chain they refer to.

T1: recombinant human CD73 protein (ACRO Biosystems, item No. CD3-H52H7) (human, UniProt P21589 27-547)
T1 construct: also called recombinant CD73 protein
T1 sequence (looked up): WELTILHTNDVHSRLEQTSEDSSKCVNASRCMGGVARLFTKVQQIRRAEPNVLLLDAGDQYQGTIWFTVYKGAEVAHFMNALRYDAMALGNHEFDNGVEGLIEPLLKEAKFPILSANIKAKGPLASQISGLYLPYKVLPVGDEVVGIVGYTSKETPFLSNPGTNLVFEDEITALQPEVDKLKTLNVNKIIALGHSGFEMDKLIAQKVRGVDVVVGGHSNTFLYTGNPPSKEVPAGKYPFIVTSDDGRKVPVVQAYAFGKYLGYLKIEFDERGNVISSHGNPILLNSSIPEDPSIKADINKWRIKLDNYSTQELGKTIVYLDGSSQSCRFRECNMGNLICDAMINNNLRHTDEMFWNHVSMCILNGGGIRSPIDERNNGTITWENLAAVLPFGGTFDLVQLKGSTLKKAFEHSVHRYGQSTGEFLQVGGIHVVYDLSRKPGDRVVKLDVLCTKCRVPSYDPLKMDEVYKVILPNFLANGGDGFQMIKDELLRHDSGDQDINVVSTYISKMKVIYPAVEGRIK

T2: human CD73 on the cell surface of CHOK1-huCD73-3F4 cells (Huabo Biopharm) (human, UniProt P21589 27-549)
T2 construct: whole, on cells; also called cells expressing human CD73; CD73 on cell membrane
T2 sequence (looked up): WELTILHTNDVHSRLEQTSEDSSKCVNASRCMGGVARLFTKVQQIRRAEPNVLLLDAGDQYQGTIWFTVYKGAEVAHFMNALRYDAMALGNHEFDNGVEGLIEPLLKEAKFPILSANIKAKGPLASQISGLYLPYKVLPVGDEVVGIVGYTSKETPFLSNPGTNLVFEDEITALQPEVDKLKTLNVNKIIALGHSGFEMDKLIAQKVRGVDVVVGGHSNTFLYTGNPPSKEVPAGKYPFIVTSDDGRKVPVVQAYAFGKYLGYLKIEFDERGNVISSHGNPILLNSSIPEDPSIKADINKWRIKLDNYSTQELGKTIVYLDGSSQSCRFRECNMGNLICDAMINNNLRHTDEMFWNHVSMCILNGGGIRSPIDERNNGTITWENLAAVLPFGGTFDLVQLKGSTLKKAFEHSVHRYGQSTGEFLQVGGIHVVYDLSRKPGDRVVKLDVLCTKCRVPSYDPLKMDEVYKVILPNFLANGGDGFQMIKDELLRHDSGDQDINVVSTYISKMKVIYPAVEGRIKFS

T3: Trypsin inhibitor type 1-S from Glycine max (Sigma, T-2327) (Glycine max, UniProt P01070 25-205)
T3 construct: Non-target molecule, amine-coupled to a CM5 chip
T3 sequence (looked up): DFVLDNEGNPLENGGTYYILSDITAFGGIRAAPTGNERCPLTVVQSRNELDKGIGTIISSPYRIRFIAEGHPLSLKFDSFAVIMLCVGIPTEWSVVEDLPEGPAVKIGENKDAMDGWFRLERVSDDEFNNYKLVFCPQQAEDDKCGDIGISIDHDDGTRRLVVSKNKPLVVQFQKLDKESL

B1: 900567 (human-mouse chimeric anti-CD73 antigen-binding protein expressed from 124A9 variable regions) (antibody, V domains shown)
VH: QVQLQQPGAELVKPGASVKLSCKASGYTFTSYWIHWVKQRPGQGLDWIGMIHPNSGSTYYNEKFKSKATLTVDKSSSTAYMQLSSLTSEDSAVYYCARYYGSDYEWYFDVWGTGTTVTVSS
VL: DIVMTQSQKFMSTSVGDRVSITCKASQNVRTAVVWYQQNPGQSPKALIYLASNRHTGVPDRFTGSGSGTDFTLTISNVHSEDLADYFCLQHWNYPYTFGGGTKLEIK
B2: 900725 (humanized anti-CD73 antigen-binding protein) (antibody, V domains shown)
VH: QVQLVQSGAEVKKPGASVKLSCKASGYTFTSYWIHWVRQAPGQGLEWIGMIHPNSGSTYYNEKFKGRATLTVDKSTSTAYMELSSLRSEDTAVYYCARYYGSDYEWYFDVWGQGTTVTVSS
VL: DIQMTQSPSSMSASVGDRVTITCKASQNVRTAVVWYQQKPGKAPKALIYLASNRHTGVPDRFSGSGSGTDFTLTISSLQPEDFATYFCLQHWNYPYTFGQGTKLEIK
B3: 900726 (humanized anti-CD73 antigen-binding protein) (antibody, V domains shown)
VH: B2 VH
VL: B2 VL with M11L, F87Y
B4: 900728 (humanized anti-CD73 antigen-binding protein) (antibody, V domains shown)
VH: B2 VH with L20V, K65Q, A68V, L70M
VL: B2 VL with M11L, F87Y
B5: 900727 (humanized anti-CD73 antigen-binding protein) (antibody, V domains shown)
VH: B2 VH with L20V, N61A, E62Q, K65Q, A68V, L70I
VL: B2 VL

The binders below were run against T1, recombinant human CD73 protein (ACRO …) (assay: SPR, Biacore T200, antibody captured on protein A chip, human CD73 as analyte, 1:1 model).
Experimental: In the tests, the assay buffer HBS-EP+ (pH 7.4) and the protein A chip (manufacturer: GE, item No.: 29-1275-56) were used.
The temperatures of a sample chamber and a flow path were set at 25° C., and the protein A chip respectively captured chimeric antibodies or humanized antibodies as ligands and immobilized at about 100 RU. […] After association for 120 s at a flow rate of 30 μL/min, dissociation was carried out for 600 s. Regeneration was then carried out for 60 s with 10 mM Glycine (pH 1.5) at a flow rate of 50 μL/min to implement multi-cycle kinetic detection. A 1:1 binding model was selected for fitting analysis in a Fit local mode to acquire the association rate constant (ka), dissociation rate constant (kd) and dissociation equilibrium rate constant (KD).

Q: How did the Kd turn out when B1 was run?
A: 652 pM

Q: What about the koff of the same binder?
A: 0.00049 s⁻¹

Q: What about the kon of the same binder?
A: 752000 M⁻¹ s⁻¹

Q: For B2, which Kd is on record?
A: 201 pM

Q: And the koff?
A: 0.000126 s⁻¹

Q: And the kon?
A: 626000 M⁻¹ s⁻¹

Q: With B3 as the binder, how does the Kd read?
A: 2490 pM

Q: What about the koff of the same binder?
A: 0.00124 s⁻¹

Q: And the kon?
A: 496000 M⁻¹ s⁻¹

Q: With B4 as the binder, how does the Kd read?
A: 377 pM

Q: And the koff?
A: 0.000317 s⁻¹

Q: And the kon?
A: 841000 M⁻¹ s⁻¹

Q: B5 was tested. Which Kd did it give?
A: 789 pM

Q: And the koff?
A: 0.000494 s⁻¹

Q: What about the kon of the same binder?
A: 626000 M⁻¹ s⁻¹

These binders were tested against T2, human CD73 on the cell surface of … (assay: flow cytometry on CHOK1-huCD73-3F4 cells, PE-goat anti-human-Fc).
Experimental: All antigen-binding proteins were diluted to 30 μg/ml with 1% BSA in PBS solution (1% BSA/PBS) and then 3-fold diluted for 11 gradients. The diluted antigen-binding proteins were added to a 96-well U-shaped plate at 20 μL per well; and a negative control (with 1% BSA/PBS added only) was set up at the same time. The suspension of cells (CHOK1-huCD73-3F4, Huabo Biopharm) expressing human CD73 during the logarithmic growth phase were centrifuged (1000 rpm×5 min) to discard the culture medium; and the cells were resuspended with 1% BSA/PBS until the density of viable cells was 1×10⁶/mL, and were added, at 20 μL (2×10⁴ cells) per well, to the 96-well U-shaped plate with the […] antigen-binding protein to react for 30 min at room temperature. After reaction, the 96-well U-shaped plate was resuspended with 1% BSA/PBS, centrifuged (300 g×3 min) to discard the supernatant, and washed once in such a way. PE-goat anti-human-Fc (Jackson ImmunoResearch, #109-115098) diluted at 1:200 was added to react for 15 min in the dark at room temperature. After reaction, the 96-well U-shaped plate was resuspended with 1% BSA/PBS, centrifuged (300 g×3 min) to discard the supernatant, washed three times in such a way, and finally resuspended with 100 μL of 1% BSA/PBS for each wall; and the fluorescence intensity of a PE channel was detected with a flow cytometer (BD, #Cantoll).

Q: With B1 as the binder, how does the EC50 read?
A: 0.065 µg/mL

Q: With B2 as the binder, how does the EC50 read?
A: 0.106 µg/mL

Q: Which EC50 does the source give for B3 here?
A: 0.174 µg/mL

Q: B4 was tested. Which EC50 did it give?
A: 0.105 µg/mL

Each binder was assayed against T3, Trypsin inhibitor type 1-S from Glycine … (assay: SPR, Biacore 8K, trypsin inhibitor immobilized on CM5, antibody at 1000 nM; buffer alone 13.9 RU).
Experimental: The non-specific adsorption effect of antigen-binding proteins and non-target molecules were determined by using the SPR method.
The series sensor chip CM5 (GE, #BR-1005-30) was equilibrated at room temperature for 20-30 min and then loaded into the Biacore 8K (GE) instrument. Lysozyme solution (Sigma, #L3790) from egg and trypsin inhibitor type 1-S (Sigma, #T-2327) from Glycine max were immobilized onto the CM5 chip using an amino coupling kit (GE, #BR-1000-50). The injection buffer was HBS-EP (1×) (GE, #BR-1006-69) and four equilibration cycles were set up. The polyclonal rabbit anti-lysozyme (ABcam, Ab391), anti-trypsin inhibitor antibodies (LifeSpan Biosciences, #LS-C76609), chimeric antibodies and humanized antibodies were diluted with equilibration buffer to 1000 nM, and the flow rate was set at 5 μL/min and injection channels 1, 2 and 3, Flow Cell 1 and 2 were selected. The association time was 10 min and the dissociation time was 10 min.
The PI of carboxymethyl dextran was 3.5, the PI of the trypsin inhibitor was 4.5, and the PI of lysozyme was 11.3. In the HBS-EP buffer solution with a pH of 7.4, carboxymethyl dextran and the trypsin inhibitor had strong negative charges, and lysozyme had strong positive charges.

Q: B1 was tested. Which “non-specific binding amount (RU)” value did it give?
A: 12.8 RU

Q: B2 was tested. Which “non-specific binding amount (RU)” value did it give?
A: 12.6 RU

Q: With B3 as the binder, how does the “non-specific binding amount (RU)” value read?
A: 15.4 RU

Q: How did the “non-specific binding amount (RU)” value turn out when B4 was run?
A: 13.5 RU

Q: With B5 as the binder, how does the “non-specific binding amount (RU)” value read?
A: 11.6 RU
